# Where two headings read alike, the source gives them in different places.
# Key:
# [1] = tested on: AR N/C interaction; assay: AR N/C interaction, mammalian two-hybrid assay in COS-1 cells; type: cell-based, human; conditions: 10 nM DHT
# Protocol: H1299 and COS-1 cells were maintained in Dulbecco's modified Eagle's medium (DMEM) (Life Technologies, Inc.) supplemented with 10% heat inactivated fetal bovine serum (FBS). LNCap cells were maintained in RPMI 1640 supplemented with […]. All media contain 100 units penicillin, 100 μg/ml streptomycin and 2 mM L-glutamine. Cells were seeded to a density of 50-60% confluency for transfection. In transfections where H1299 and COS-1 cells were used, the calcium phosphate precipitation method was used as described (Pan H J, et al. 1999. Endocrine 11:321-327) unless otherwise noted. […] In other reporter gene assays, where ligand treatment was required, cell culture media were changed to DMEM containing 10% charcoal-dextran-stripped FBS (CD-FBS) 2 h before transfection. After 16-18 h transfection, cells were treated with medium containing either vehicle or ligands for another 20-24 h and then cells were harvested. With LNCap cells transfection, the cells were treated with fresh RPMI 1640 containing 10% CD-FBS before transfection with SuperFect performed according to the manufacturer's protocol (Qiagen). After transfection, cells were allowed to recover in fresh RPMI 1640 containing 10% CD-FBS for 8-12 h, and then treated with either vehicle or ligands for another 20-24 h before harvesting. Each experiment was repeated at least three times.
# [2] = tested on: AR; assay: AR protein level in H1299 cells (Western blot); type: cell-based, human; conditions: pSG5-AR and pKH3-ARA67 1 to 6
# Sequence of AR (P10275 with tags, fused parts or gaps DEL79-80/DUP473-473): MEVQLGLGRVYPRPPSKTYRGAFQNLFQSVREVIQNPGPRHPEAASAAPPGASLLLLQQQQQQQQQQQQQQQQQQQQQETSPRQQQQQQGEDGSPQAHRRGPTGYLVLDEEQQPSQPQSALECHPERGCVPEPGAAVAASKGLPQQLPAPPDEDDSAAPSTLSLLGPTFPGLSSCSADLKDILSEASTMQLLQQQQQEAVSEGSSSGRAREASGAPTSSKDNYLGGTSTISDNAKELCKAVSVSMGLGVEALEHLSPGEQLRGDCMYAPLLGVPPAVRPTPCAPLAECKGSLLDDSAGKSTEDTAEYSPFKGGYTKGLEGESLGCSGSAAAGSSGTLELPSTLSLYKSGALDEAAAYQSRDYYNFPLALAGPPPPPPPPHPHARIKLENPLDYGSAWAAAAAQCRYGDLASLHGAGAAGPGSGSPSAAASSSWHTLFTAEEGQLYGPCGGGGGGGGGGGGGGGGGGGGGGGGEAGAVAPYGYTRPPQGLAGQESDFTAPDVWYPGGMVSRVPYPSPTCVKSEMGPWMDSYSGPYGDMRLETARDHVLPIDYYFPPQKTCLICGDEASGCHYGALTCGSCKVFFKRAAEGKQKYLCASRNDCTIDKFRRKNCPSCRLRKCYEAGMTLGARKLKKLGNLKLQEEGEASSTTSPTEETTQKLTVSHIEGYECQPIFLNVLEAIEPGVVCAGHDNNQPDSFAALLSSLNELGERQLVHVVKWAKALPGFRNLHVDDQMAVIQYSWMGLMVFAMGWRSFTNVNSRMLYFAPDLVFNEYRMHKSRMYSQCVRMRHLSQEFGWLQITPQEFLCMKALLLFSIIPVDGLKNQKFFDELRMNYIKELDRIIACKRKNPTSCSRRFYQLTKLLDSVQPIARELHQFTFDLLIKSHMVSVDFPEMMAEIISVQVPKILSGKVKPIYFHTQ
# Protocol: Protein samples collected from the cells were separated on 8% SDS-PAGE and transferred to nitrocellulose membranes. Membranes were blocked with 5% nonfat milk in TBST buffer (150 mM NaCl, 10 mM Tris/pH8.0, and 0.5% Tween-20) at room temperature for 1 h. Then the membranes were immunoblotted with primary antibodies for 2 h at room temperature or overnight at 4° C., followed by incubation with secondary antibodies for 1 h at room temperature. Blots were developed with the AP color developing reagents (Bio-Rad).
# [3] = tested on: AR (ARN, ARDBD, ARLBD); assay: GST pull-down assay ARA67 / AR; type: binding, human
# Protocol: GST-ARN, GST-ARA67 fusion proteins, and GST control protein were expressed in BL21 (DE3)pLysS bacteria strain (Stratagene) and purified with glutathione-Sepharose beads as instructed by the manufacturer (Amersham Pharmacia). In vitro [^35S]methionine-labeled AR, ARN, AR DBD, AR LBD and ARA67 proteins were generated using TNT-coupled Reticulocyte Lysate Systems (Promega). For in vitro interaction, mixtures of glutathione beads bound GST fusion proteins and 5 μl [^35S]methionine-labeled input proteins in 100 μl interaction buffer (20 mM Tris/pH8.0, 60 mM NaCl, 6 mM MgCl2, 1 mM EDTA, 0.05% Nonidet P-40, 1 mM DTT, 8% glycerol, 1 mM PMSF) were incubated in the presence or absence of 10 μM dihydrotestosterone (DHT) on a rotating disk at 4° C. for 2 h. After washing with NETN buffer (20 mM Tris/pH8.0, 100 mM NaCl, 6 mM MgCl2, 1 mM EDTA, 0.5% Nonidet P-40, 1 mM DTT, 8% glycerol, 1 mM PMSF) four times, the bound proteins were separated on 8-13% SDS-PAGE and visualized by autoradiography.
# Sequence of AR N/C interaction (P10275 552-919 limits assumed): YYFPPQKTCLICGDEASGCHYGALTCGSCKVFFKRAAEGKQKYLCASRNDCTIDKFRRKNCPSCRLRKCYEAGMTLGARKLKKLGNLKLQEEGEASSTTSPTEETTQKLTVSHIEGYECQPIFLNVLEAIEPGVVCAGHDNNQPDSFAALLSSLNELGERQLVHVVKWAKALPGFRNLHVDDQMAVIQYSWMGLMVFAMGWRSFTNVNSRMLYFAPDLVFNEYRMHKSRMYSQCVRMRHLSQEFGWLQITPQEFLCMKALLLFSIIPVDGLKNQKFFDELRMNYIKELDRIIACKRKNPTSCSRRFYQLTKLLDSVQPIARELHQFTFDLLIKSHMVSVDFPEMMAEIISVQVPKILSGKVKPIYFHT
# Sequence of AR N/C interaction (P10275 1-559 partner limits assumed): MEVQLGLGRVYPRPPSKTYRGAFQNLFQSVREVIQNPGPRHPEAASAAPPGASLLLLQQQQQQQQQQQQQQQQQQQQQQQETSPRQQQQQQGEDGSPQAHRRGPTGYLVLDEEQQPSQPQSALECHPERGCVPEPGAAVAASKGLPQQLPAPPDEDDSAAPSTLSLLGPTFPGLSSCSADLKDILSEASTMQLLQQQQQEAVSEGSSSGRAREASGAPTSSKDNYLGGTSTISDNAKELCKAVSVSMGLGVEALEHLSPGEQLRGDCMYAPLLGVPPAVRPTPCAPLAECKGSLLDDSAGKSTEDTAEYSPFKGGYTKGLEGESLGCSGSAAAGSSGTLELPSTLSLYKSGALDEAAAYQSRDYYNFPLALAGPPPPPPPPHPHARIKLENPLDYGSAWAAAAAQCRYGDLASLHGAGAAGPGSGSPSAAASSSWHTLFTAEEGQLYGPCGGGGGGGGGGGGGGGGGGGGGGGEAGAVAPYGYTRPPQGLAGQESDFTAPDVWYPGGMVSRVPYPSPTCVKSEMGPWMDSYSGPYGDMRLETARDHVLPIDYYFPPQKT
molecule,measurement,setting,value
"ARA67: AR N-terminal interacting protein of 585 amino acids (SEQ ID NO:1), matches PAT1; functions as a repressor of AR (protein) MAAVELEWIPETLYNTAISAVVDNYIRSRRDIRSLPENIQFDVYYKLYQQGRLCQLGSEFCELEVFAKVLRALDKRHLLHHCFQALMDHGVKVASVLAYSFSRRCSYIAESDAAVKEKAIQVGFVLGGFLSDAGWYSDAEKVFLSCLQLCTLHDEMLHWFRAVECCVRLLHVRNGNCKYHLGEETFKLAQTYMDKLSKHGQQANKAALYGELCALLFAKSHYDEAYKWCIEAMKEITAGLPVKVVVDVLRQASKACVVKREFKKAEQLIKHAVYLARDHFGSKHPKYSDTLLDYGFYLLNVDNICQSVAIYQAALDIRQSVFGGKNIHVATAHEDLAYSSYVHQYSSGKFDNALFHAERAIGIITHILPEDHLLLASSKRVKALILEEIAIDCHNKETEQRLLQEAHDLHLSSLQLAKKAFGEFNVQTAKHYGNLGRLYQSMRKFKEAEEMHIKAIQIKEQLLGQEDYEVALSVGHLASLYNYDMNQYENAEKLYLRSIAIGKKLFGEGYSGLEYDYRGLIKLYNSIGNYEKVFEYHNVLSNWNRLRDRQYSVTDALEDVSTSPQSTEEVVQSFLISQNVEGPSC",DHT promoted AR N/C interaction,[1],slightly enhanced
same,AR protein level,[2],slightly increased
same,interaction with AR LBD,[3],moderately
same,interaction with ARDBD,[3],very weakly
same,interaction with ARN,[3],most strongly
same,interaction with GST-ARN fragment ARN1-140,[3]; [35S]methionine-labeled ARA67,positive interaction
same,interaction with ARN,[3]; listed as full length ARA67,strong interaction
same,"interaction with AR, DHT dependence",[3]; presence and absence of 10 μM DHT,DHT independent manner
